Measurements from article PMC5389562.

Biological target: T1, mCherry-U2AF35 (UniProt Q01081)
T1 sequence: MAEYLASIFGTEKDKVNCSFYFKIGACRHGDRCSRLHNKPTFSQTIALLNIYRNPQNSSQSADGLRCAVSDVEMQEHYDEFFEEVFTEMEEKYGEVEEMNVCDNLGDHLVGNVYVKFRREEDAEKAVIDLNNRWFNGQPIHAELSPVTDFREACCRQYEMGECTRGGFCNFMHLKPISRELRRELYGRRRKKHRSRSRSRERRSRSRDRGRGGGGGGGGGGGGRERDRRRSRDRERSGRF
Experiment: single-molecule colocalization/bleaching
Settings: 5' GMPS; HEK293T nuclear extract expressing fusion proteins, preincubated 15 min with ATP/phosphocreatine or ATP-depleted at 30 C; pre-mRNA 62.5 nM; +ATP reactions …

Substance: GloC pre-mRNA
- binding signal (% RNA colocalized): 20
